Measured values reported in patent US20160251438A1 (LUDWIG INSTITUTE FOR CANCER RESEARCH, published 2016).

Experiments:
[1] = target: T1, chimera 265 / hTGF-β1 complex on the cell surface (Mus musculus, UniProt G3XA59); test: FACS, 293T, HA-tagged construct + hTGFB1
T1 construct: N-terminal part

[2] = target: T2, chimera 141 / hTGF-β1 complex on the cell surface (Mus musculus, UniProt G3XA59); test: FACS, 293T, HA-tagged construct + hTGFB1
T2 construct: N-terminal part

[3] = target: T3, chimera 332 / hTGF-β1 complex on the cell surface (Mus musculus, UniProt G3XA59); test: FACS, 293T, HA-tagged construct + hTGFB1
T3 construct: N-terminal part

[4] = target: T4, chimera 207 / hTGF-β1 complex on the cell surface (Mus musculus, UniProt G3XA59); test: FACS, 293T, HA-tagged construct + hTGFB1
T4 construct: N-terminal part

[5] = target: T5, recombinant soluble human GARP-TGFβ1 complex (human, UniProt Q14392 20-628; P01137 30-390); test: SPR (Biacore), hGARP-TGFβ1 immobilised
T5 construct: co-expressed in HEK293E, purified by the Strep-Tag; TGFβ consists of LAP and mature TGFβ; also called shGARP-TGFβ; rhGARP-TGFβ
T5 sequence (Q14392 other isoform, or with tags, fused parts or gaps limits assumed, chain 1 of 2): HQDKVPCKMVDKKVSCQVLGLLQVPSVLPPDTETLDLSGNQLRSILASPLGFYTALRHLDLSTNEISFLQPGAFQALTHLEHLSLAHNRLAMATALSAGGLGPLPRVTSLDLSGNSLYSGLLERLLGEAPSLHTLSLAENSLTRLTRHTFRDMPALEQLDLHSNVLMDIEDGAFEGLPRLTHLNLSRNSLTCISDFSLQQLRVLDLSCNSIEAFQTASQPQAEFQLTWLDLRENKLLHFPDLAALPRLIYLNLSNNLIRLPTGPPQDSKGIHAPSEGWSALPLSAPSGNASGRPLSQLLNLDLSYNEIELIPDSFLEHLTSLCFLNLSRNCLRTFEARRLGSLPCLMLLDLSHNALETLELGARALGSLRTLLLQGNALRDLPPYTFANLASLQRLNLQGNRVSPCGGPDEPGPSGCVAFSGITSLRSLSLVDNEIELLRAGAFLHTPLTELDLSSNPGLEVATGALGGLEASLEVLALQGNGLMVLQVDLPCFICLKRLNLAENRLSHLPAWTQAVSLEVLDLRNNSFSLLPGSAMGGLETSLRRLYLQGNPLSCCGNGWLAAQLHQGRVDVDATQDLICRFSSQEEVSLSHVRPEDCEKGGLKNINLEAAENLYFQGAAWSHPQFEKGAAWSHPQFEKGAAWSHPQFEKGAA
T5 sequence (P01137 30-390 limits assumed, chain 2 of 2): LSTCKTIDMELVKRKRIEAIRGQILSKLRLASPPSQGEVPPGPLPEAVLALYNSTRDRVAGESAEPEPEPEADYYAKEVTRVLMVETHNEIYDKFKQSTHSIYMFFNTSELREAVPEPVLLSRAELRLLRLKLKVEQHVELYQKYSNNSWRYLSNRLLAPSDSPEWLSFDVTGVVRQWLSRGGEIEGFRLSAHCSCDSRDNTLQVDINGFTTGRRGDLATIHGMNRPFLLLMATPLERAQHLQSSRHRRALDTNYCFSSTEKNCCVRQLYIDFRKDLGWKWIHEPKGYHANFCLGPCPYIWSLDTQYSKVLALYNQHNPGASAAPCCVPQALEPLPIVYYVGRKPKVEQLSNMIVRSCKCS

[6] = target: GARP T162D / TGF-β1 complex (human, UniProt Q14392 20-662; P01137 30-390); test: FACS 293T, 5 ug/ml, normalised to anti-HA
Text: (§1) Resolution of the crystal structure of MHG-8 Fab/GARP/TGF-β1 complexes and analysis with the CONTACT software allowed the identification of 22 amino-acids in GARP, 8 amino-acids in LAP and 6 amino-acids in mature TGF-β1 that are located less than 5 Å away from an amino-acid of the light or heavy chain of the MHG-8 Fab (Tables 7a, b and c, and Table 8). Directed mutagenesis was used to construct plasmids encoding HA-tagged forms of GARP or TGF-β1 that are mutated at one, two, or three of these 36 positions (all mutations constructed are indicated in Table 8). […] Antibodies were used at a saturating concentration of 5 μg/ml for labeling. Binding of each antibody to a given mutant GARP/TGF-β1 complex was compared to their binding to wild type (WT) complexes, by determining an I_{m/wt} value (i.e. intensity of binding to mutant by comparison to WT). This value was calculated as follows: I_{m/wt} of antibody X=[Geom on mutant−Geom on control]/[Geom on WT−Geom on control]
(§2) The level of residual binding of anti-GARP or anti-LAP antibodies to each mutant was then calculated by comparison to WT, taking into account the expression levels of mutant and WT forms as measured with anti-HA antibodies. Residual binding was calculated as follows: Residual binding by an anti-GARP or anti-LAP antibody=[I_{m/wt} with anti-GARP or anti-LAP antibody]/[I_{m/wt} with anti-HA antibody]

[7] = target: T6, GARP R143Y / TGF-β1 complex (human, UniProt Q14392 20-662; P01137 30-390); test: FACS 293T, 5 ug/ml, normalised to anti-HA
T6 sequence (Q14392 20-662 R143Y limits assumed, chain 1 of 2): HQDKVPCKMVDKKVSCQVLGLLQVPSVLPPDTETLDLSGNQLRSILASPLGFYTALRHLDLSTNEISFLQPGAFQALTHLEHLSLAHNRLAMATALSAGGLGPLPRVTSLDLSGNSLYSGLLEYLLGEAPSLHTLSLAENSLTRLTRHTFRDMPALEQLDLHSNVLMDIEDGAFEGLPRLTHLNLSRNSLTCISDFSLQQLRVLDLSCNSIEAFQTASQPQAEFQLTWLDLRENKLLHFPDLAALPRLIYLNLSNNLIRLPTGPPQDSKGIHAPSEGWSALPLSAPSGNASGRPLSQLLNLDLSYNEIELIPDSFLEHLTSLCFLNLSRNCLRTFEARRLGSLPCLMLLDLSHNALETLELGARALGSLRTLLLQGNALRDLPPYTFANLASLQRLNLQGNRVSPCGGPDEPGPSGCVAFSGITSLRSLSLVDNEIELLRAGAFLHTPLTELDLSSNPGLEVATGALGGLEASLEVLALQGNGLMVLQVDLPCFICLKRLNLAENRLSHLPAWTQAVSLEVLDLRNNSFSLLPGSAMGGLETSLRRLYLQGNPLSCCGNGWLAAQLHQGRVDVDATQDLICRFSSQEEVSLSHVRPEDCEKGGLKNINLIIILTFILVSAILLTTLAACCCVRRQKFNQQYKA
T6 sequence (P01137 30-390 limits assumed, chain 2 of 2): as the sequence (P01137 30-390 limits assumed, chain 2 of 2) above
Text: as §1, §2

[8] = target: GARP R163E / TGF-β1 complex (human, UniProt Q14392 20-662; P01137 30-390); test: FACS 293T, 5 ug/ml, normalised to anti-HA
Text: as §1, §2

[9] = target: T7, GARP Y137H / TGF-β1 complex (human, UniProt Q14392 20-662; P01137 30-390); test: FACS 293T, 5 ug/ml, normalised to anti-HA
T7 sequence (Q14392 20-662 Y137H limits assumed, chain 1 of 2): as the sequence (Q14392 20-662 R143Y limits assumed, chain 1 of 2) above, with Y118H, Y124R counted along it
T7 sequence (P01137 30-390 limits assumed, chain 2 of 2): as the sequence (P01137 30-390 limits assumed, chain 2 of 2) above
Text: as §1, §2

[10] = target: GARP / TGF-β1 Q269Y complex (human, UniProt Q14392 20-662; P01137 30-390); test: flow cytometry titration on transfected 293T cells; grade of Reduced avidity read by footnote 3
Protocol: (§3) Intensities of staining at each concentration of antibody relative to the maximal intensity measured at 5 μg/ml were determined as follows:
(§4) The relative staining intensities were plotted according to the concentration of antibody used for staining, and a non-linear regression analysis was used with the Prism software to determine an EC₅₀ value for binding of the antibody to the WT and to each of the various mutant GARP/TGF-β1 complexes. If the ratio between the EC₅₀ measured on the mutant and the EC₅₀ measured on the WT was >2, the mutation was considered to induce a reduced avidity for binding by the antibody. The ratio of EC₅₀ (mutant vs WT) for MHG-8 and LHG-10 are indicated below each mutation on FIG. 19, parts A and B, respectively.

[11] = target: GARP / TGF-β1 Q272Y complex (human, UniProt Q14392 20-662; P01137 30-390); test: as above
Protocol: as §3, §4

[12] = target: GARP E189A / TGF-β1 complex (human, UniProt Q14392 20-662; P01137 30-390); test: as above
Protocol: as §3, §4

[13] = target: GARP / TGF-β1 Y336A complex (human, UniProt Q14392 20-662; P01137 30-390); test: flow cytometry on transfected 293T cells, 5 ug/ml; grade of Loss of binding read by footnote 2 (error bar crosses the 50% threshold)
Text: as §1, §2

[14] = target: GARP R163E/T165A / TGF-β1 complex (human, UniProt Q14392 20-662; P01137 30-390); test: as above
Text: as §1, §2

[15] = target: T6, GARP R143Y / TGF-β1 complex; test: as above
Text: as §1, §2

[16] = target: T7, GARP Y137H / TGF-β1 complex; test: as above
Text: as §1, §2

T1 sequence (G3XA59 other isoform, or with tags, fused parts or gaps mutant limits assumed, chain 1 of 2): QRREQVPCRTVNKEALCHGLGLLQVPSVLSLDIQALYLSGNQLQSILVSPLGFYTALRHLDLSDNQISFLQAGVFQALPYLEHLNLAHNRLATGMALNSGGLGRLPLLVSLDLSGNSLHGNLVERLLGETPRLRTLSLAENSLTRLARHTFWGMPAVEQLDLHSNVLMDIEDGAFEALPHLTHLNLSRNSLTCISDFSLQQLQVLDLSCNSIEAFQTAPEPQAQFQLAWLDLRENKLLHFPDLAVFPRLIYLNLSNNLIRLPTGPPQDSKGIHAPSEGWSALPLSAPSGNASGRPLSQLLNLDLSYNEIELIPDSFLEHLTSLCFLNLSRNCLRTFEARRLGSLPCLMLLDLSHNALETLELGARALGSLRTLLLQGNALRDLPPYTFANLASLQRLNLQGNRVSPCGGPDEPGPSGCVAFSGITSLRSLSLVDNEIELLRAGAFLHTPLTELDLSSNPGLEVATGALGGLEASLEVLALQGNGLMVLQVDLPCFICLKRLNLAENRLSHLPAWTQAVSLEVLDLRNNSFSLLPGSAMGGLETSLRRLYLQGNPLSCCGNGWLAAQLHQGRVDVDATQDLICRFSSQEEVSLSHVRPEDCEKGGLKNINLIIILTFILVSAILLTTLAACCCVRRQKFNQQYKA
T1 sequence (TGF-β1, as listed by the source mutant limits assumed, chain 2 of 2): as the sequence (P01137 30-390 limits assumed, chain 2 of 2) above

B1: LHG-10 (antibody, human IgG1, V domains shown)
VH: EVQLVQPGAELRNSGASVKVSCKASGYRFTSYYIDWVRQAPGQGLEWMGRIDPEDGGTKYAQKFQGRVTFTADTSTSTAYVELSSLRSEDTAVYYCARNEWETVVVGDLMYEYEYWGQGTQVTVSS
VL: DIQMTQSPTSLSASLGDRVTITCQASQSISSYLAWYQQKPGQAPKLLIYGASRLQTGVPSRFSGSGSGTSFTLTISGLEAEDAGTYYCQQYDSLPVTFGQGTKVELK
notes: llama-derived V regions in a full human IgG1
[1]
  binding result: no binding
[2]
  binding result: no binding
[3]
  binding result: no binding
[4]
  binding result: no binding
[5]
  Kd: 0.131 nM
  fold improvement of KD (reference LHG-10): 1 fold
  fold improvement of ka (reference LHG-10): 1 fold
  fold improvement of kd (reference LHG-10): 1 fold
  koff: 3.12e-05 s⁻¹
  kon: 239000 M⁻¹ s⁻¹
[6]
  residual binding (% of WT): 49%
[7]
  residual binding (% of WT): 68%
[8]
  residual binding (% of WT): 48%
[9]
  residual binding (% of WT): 62%
[10]
  ratio of EC50 (mutant vs WT): ≤ 2 ratio
[11]
  ratio of EC50 (mutant vs WT): ≤ 2 ratio
[12]
  ratio of EC50 (mutant vs WT): ≤ 2 ratio
[13]
  residual binding on mutant by comparison to WT: ≥ 50%
[14]
  residual binding on mutant by comparison to WT: ≥ 50%
[15]
  residual binding on mutant by comparison to WT: ≥ 50%
[16]
  residual binding on mutant by comparison to WT: ≥ 50%
